Data reported in patent US9809645B2, “Anti-Staphylococcus antibody, method for manufacturing same, and usage of same” (priority 2013, dated 2017).
Structures can show the parent of a compound that is named as a salt.

B1: ZBIA9H: anti-Staphylococcus monoclonal antibody; CDRs SEQ ID NOs: 17-22, variable regions SEQ ID NOs: 23 and 24 (antibody, listed as Mus musculus, V domains shown)
VH: EVQLVESGGGLVQPKGSLKLSCAASGFTFNTYAMNWVRQAPGKGLEWVARIRSKSNNYATYYADSVKDRFTIFRDDSQSILYLQLNNLKTEDTAMYYCVRRGGNPYYAMDYWGQGTSVTVSS
VL: QIVLSQSPAILSASPGEKVTMTCRASSSVSYMHWYQQKPGSSPKPWIYATSNLASGVPGRFSGSGSGTSYSLTISRVEAEDAATYYCQQWSSNPPTFGGGTKLEIK
B2: ZBIA3H: antibody produced by hybridoma NITE BP-1366; heavy and light chain variable regions SEQ ID NOs: 15 and 16 (antibody, listed as Mus musculus, V domains shown)
VH: EVQLVESGGGLVQPKGSLKLSCAASGFTFNTYAMNWVRQAPGKGLEWVARIRSKSNNYATYYADSVKDRFTISRDDSQSMLYLQMNSLKTEDTAMYYCVRRGGNAIYYAMDYWGQGTSVTVSS
VL: QIVLTQSPAIMSASPGEKVTMTCSANSSVSYMHWYQQKSGTSPKAWIYDTSKLASGVPARFSGSGSGTSYSLTISSMEAEDAATYYCQQWSSNPPTFGSGTKLEIK
B3: ZBIA5H: antibody produced by hybridoma NITE BP-1367; heavy and light chain variable regions SEQ ID NOs: 7 and 8 (antibody, listed as Mus musculus, V domains shown)
VH: QIQLVQSGPELKKPGETVKISCKASGYTFTDYSMHWVKQAPGKGLKWMGWINTETGEPTYADDFKGRFAFSLETSASTAYLQINNLKNEDTATYFCARPYYAMDYWGQGTSVTVSS
VL: DIQMTQSPSSLSASLGGKVTITCKASQDINKYIAWYQHKPGKGPRLLIHYTSTLQPGIPSRFSGSGSGRDYSFSISNLEPEDIATYYCLQYDNLLPWTFGGGTKLEIK

Columns and labels:
[1] = system: Staphylococcus aureus strain MW2; assay: Community-acquired MRSA mouse pneumonia model, therapeutic; format: in vivo; conditions: 1 mg into tail vein three days after nasal infection with 4×10^8 cells MW2; lungs five days after infection; BALB/c mice; compared to PBS group; Wilcoxon rank sum test; FIGS. 10 and 11
Description: The Staphylococcus aureus strain MW2 was nasally administered, at 4×10^8 cells/40 μL PBS, to female 7-week-old BALB/c mice to allow the bacteria to infect the lungs. Three days later, 0.2 mL of a test sample (PBS, 1 mg anti-Staphylococcus antibody, 1 mg mouse IgG, 1 mg vancomycin hydrochloride (VCM)) was administered into the tail veins.
Five days after the Staphylococcus aureus administration (two days after the test sample administration), the lungs were extirpated, homogenized, and the resulting suspensions were applied to mannitol salt agar plates. They were cultured for 36 hours at 37° C. The number of colonies that appeared was counted, and was used as the number of lung infecting bacteria.

[2] = system: Staphylococcus aureus (protein A knock-out OS2 strain); assay: Staphylococcus aureus solid phase Cell-ELISA (live cells immobilized); format: binding; conditions: purified antibody; A405; FIG. 2
Description: In order to detect antibodies actually capable of binding to an infectious Staphylococcus capable of growth, the binding of the anti-Staphylococcus antibodies was measured using Staphylococcus aureus solid phase Cell-ELISA in which live cells were immobilized onto a solid phase.
A protein A knock-out OS2 strain was grown in stationary culture for 16 hours at 30° C. in TSB, collected by centrifugation, washed three times using Dulbecco's phosphate buffered saline (-) (hereinafter “PBS”), and adjusted to a concentration of about A600=0.1.
This was dispensed at 100 μL for each well of a 96-well ELISA plate (Nunc, Maxisorp), and the well was left standing for 6 hours at 4° C. to coat the cells. After washing three times with PBS, 300 μL of 1% rabbit serum/PBS was added to each well, and the well was left standing for 16 hours at 4° C. to perform blocking. Furthermore, after washing three times with 0.05% Tween 20/PBS, 100 μL/well of an immunized mouse serum or hybridoma culture supernatant was added to each well, and the well was left standing for 2 hours at 30° C. After washing three times with 0.05% Tween 20/PBS again, 100 μL/well of a goat HRP-labelled F(ab′)2 anti-mouse IgG+IgM (BioSource) or a goat HRP-labelled F(ab′)2 anti-mouse IgG (γ) (KPL) was added as the secondary antibody to each well, and the well was left standing for 2 hours at 30° C. After washing three times with 0.05% Tween 20/PBS, 100 μL/well of ABTS was added to each well as the substrate to allow color to develop, and photometry at A405 was performed using a microplate reader to measure the amount of anti-Staphylococcus antibodies.
The binding affinity between an anti-Staphylococcus antibody and a Staphylococcus was examined by ELTSA reactivity.

[3] = system: Staphylococcus aureus strain MW2; assay: Community-acquired MRSA mouse pneumonia model, preventive; format: in vivo; conditions: 1 mg into tail vein one hour before nasal infection with 4×10^8 cells MW2; lungs four days after infection; BALB/c mice; compared to PBS group; Wilcoxon rank sum test; FIGS. 8 and 9
Description: A 0.2 mL portion of a test sample (PBS, 1 mg anti-Staphylococcus antibody, 1 mg vancomycin hydrochloride (VCM)) was administered into the tail vein, and one hour after the administration, the Staphylococcus aureus strain MW2 was nasally administered at 4×10^8 cells/40 μL PBS to female 7-week-old BALB/c mice to infect the lungs. Four days after the infection, the lungs were extirpated, suspended using a homogenizer, applied to mannitol salt agar plates, and cultured for 36 hours at 37° C. The number of colonies that appeared was counted, and was defined as the number of lung infecting bacteria.

[4] = system: Staphylococcus aureus strain VRS1; assay: Highly vancomycin-resistant MRSA mouse sepsis model; format: in vivo; conditions: 1 mg antibody intraperitoneal with 2-3×10^9 cells VRS1; female BALB/c mice; compared to PBS-administered group and VCM-administered group; Fisher's exact test; FIG. 7
Description: The Staphylococcus aureus strain VRS1, at 2-3×10^9 cells/0.5 mL PBS, and 0.2 mL of a test sample (PBS, 1 mg anti-Staphylococcus antibody, 1 mg mouse IgG, 1 mg vancomycin hydrochloride (VCM)) were administered to the peritoneal cavities of female 7-week-old BALB/c mice, and the number of surviving mice was determined.

[5] = system: Staphylococcus aureus strain MW2; assay: Community-acquired MRSA mouse sepsis model; format: in vivo; conditions: 1 mg antibody intraperitoneal with 8×10^8 cells MW2; female BALB/c mice; compared to PBS-administered group; Fisher's exact test; FIGS. 4 and 5
Description: The Staphylococcus aureus strain MW2, at 8×10^8 cells/0.5 mL PBS, and 0.2 mL of a test substance (PBS, 1 mg anti-Staphylococcus antibody, 1 mg mouse IgG) were administered to the peritoneal cavities of female 7-week-old BALB/c mice, and the number of surviving mice was determined.

| Molecule | number of lung infecting bacteria (therapeutic) [1] | binding affinity to Staphylococcus aureus (ELISA reactivity, grouped by added concentration and reactivity) [2] | number of lung infecting bacteria (preventive) [3] | life-prolonging effect (number of surviving mice) [4] | life-prolonging effect (number of surviving mice) [5] |
| --- | --- | --- | --- | --- | --- |
| CN[C@H](CC(C)C)C(=O)N[C@H]1C(=O)N[C@@H](CC(N)=O)C(=O)N[C@H]2C(=O)N[C@H]3C(=O)N[C@H](C(=O)N[C@H](C(=O)O)c4cc(O)cc(O)c4-c4cc3ccc4O)[C@H](O)c3ccc(c(Cl)c3)Oc3cc2cc(c3O[C@@H]2O[C@H](CO)[C@@H](O)[C@H](O)[C@H]2O[C@H]2C[C@](C)(N)[C@H](O)[C@H](C)O2)Oc2ccc(cc2Cl)[C@H]1O [VCM, vancomycin hydrochloride, reference compound] | significantly reduced numbers of lung infecting bacteria | – | – | – | – |
| B1 | – | moderate level of binding affinity | – | – | – |
| B2 | significantly reduced numbers of lung infecting bacteria | moderate level of binding affinity | significantly reduced numbers of lung infecting bacteria | significant life-prolonging effects | significant life-prolonging effects |
| B3 | significantly reduced numbers of lung infecting bacteria | moderate level of binding affinity | significantly reduced numbers of lung infecting bacteria | significant life-prolonging effects | significant life-prolonging effects |
